Article PMC8746315, “Biophysical Characterization of Novel DNA Aptamers against K103N/Y181C Double Mutant HIV-1 Reverse Transcriptase”

These binders were tested against HIV-1 reverse transcriptase, wild type (HIV-1, UniProt P04585;P04585 588-1147;588-1027) (assay: SPR; SPR: 10 mM HEPES pH 7.5, 150 mM NaCl, 80 mM KCl, 5 mM MgCl2, 25 C, RT on NTA chip; NMR: 10 mM Tris-d11 pD 7.6, 200 mM KCl, 1.5 mM sodium azide, 4 mM MgCl2; inhibition assay 25 C, 30 min). Conditions: protein: recombinant; (NTA chip capture); copies: 1;1.

Point of comparison: CCAGAAAGCTCGGGTTCGTTCCACAAATAACACTTGCCC (ssDNA) [KY28], Kd 1020 nM. Against it:
- GTGCAAGCGTACGAAGGGATAATTCACTCTAGGAGCTTCT (ssDNA) [KY44] — 2.1-fold higher, 2150 nM
- CTATAGGGGGTTGCATCTTAGACATTAATGTTCATTTACA (ssDNA) [KY23] — 18-fold lower, 55.2 nM
- AGTAAGACTATAATTCAGTCCTCATTGATTTCCCACATCG (ssDNA) [KY1] — 2.1-fold higher, 2170 nM
- CACACTAAGGGAGTAGGAATCCGCGGTCACAATGTTCCTG (ssDNA) [KY22] — within 1.5-fold, 1040 nM
